Test results from the supplement of paper PMC11316812.
± gives the standard deviation of the averaged measurements.

What was measured:
hTERT-HMEC = assay: percentage of EdU-negative (G0-arrested) nuclei per well, 72 h; higher = more G0 arrest; conditions: reference: sequence is the full UniProt precursor, the tested protein was the secreted form or ectodomain
MCF7 = assay: as above; conditions: reference: sequence is the full UniProt precursor, the tested protein was the secreted form or ectodomain
[1] = protein concentration 0.03108 µM
[2] = protein concentration 0.3108 µM
[3] = protein concentration 0.0225 µM
[4] = protein concentration 0.01175 µM
[5] = protein concentration 0.1175 µM
[6] = protein concentration 0.02075 µM
[7] = protein concentration 0.2075 µM
[8] = protein concentration 0.03125 µM
[9] = protein concentration 0.3125 µM
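Further: secreted proteins added to cultured cells, EdU pulse at the end, nuclei found by Hoechst imaging, EdU status from nuclear versus surrounding ring intensity ratio, PBS as neutral control.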

Sequence | percentage of EdU-negative (hTERT-HMEC; [3]) [%] | percentage of EdU-negative (hTERT-HMEC; protein concentration 0.225 µM) [%] | percentage of EdU-negative (MCF7; [3]) [%] | percentage of EdU-negative (MCF7; protein concentration 0.225 µM) [%] | further results
MEEGQYSEIEELPRRRCCRRGTQIVLLGLVTAALWAGLLTLLLLWHWDTTQSLKQLEERAARNVSQVSKNLESHHGDQMAQKSQSTQISQELEELRAEQQRLKSQDLELSWNLNGLQADLSSFKSQELNERNEASDLLERLREEVTKLRMELQVSSGFVCNTCPEKWINFQRKCYYFGKGTKQWVHARYACDDMEGQLVSIHSPEEQDFLTKHASHTGSWIGLRNLDLKGEFIWVDGSHVDYSNWAPGEPTSRSQGEDCVMMRGSGRWNDAFCDRKLGAWVCDRLATCTPPASEGSAESMGPDSRPDPDGRLPTPSAPLHS |  |  |  |  | percentage of EdU-negative (hTERT-HMEC; protein concentration 0.005 µM): 5.26 ± 0.5%; percentage of EdU-negative (hTERT-HMEC; protein concentration 0.05 µM): 5.97 ± 0.12%; percentage of EdU-negative (MCF7; protein concentration 0.005 µM): 23.6 ± 0.92%; percentage of EdU-negative (MCF7; protein concentration 0.05 µM): 23.9 ± 0.99%
MEESVVRPSVFVVDGQTDIPFTRLGRSHRRQSCSVARVGLGLLLLLMGAGLAVQGWFLLQLHWRLGEMVTRLPDGPAGSWEQLIQERRSHEVNPAAHLTGANSSLTGSGGPLLWETQLGLAFLRGLSYHDGALVVTKAGYYYIYSKVQLGGVGCPLGLASTITHGLYKRTPRYPEELELLVSQQSPCGRATSSSRVWWDSSFLGGVVHLEAGEKVVVRVLDERLVRLRDGTRSYFGAFMV |  |  |  |  | percentage of EdU-negative (hTERT-HMEC; protein concentration 0.012 µM): 6.38 ± 0.16%; percentage of EdU-negative (hTERT-HMEC; protein concentration 0.12 µM): 15.2 ± 1.9%; percentage of EdU-negative (MCF7; protein concentration 0.012 µM): 23.7 ± 1.9%; percentage of EdU-negative (MCF7; protein concentration 0.12 µM): 25.5 ± 0.62%
MEFLWAPLLGLCCSLAAADRHTVFWNSSNPKFRNEDYTIHVQLNDYVDIICPHYEDHSVADAAMEQYILYLVEHEEYQLCQPQSKDQVRWQCNRPSAKHGPEKLSEKFQRFTPFTLGKEFKEGHSYYYISKPIHQHEDRCLRLKVTVSGKITHSPQAHDNPQEKRLAADDPEVRVLHSIGHSAAPRLFPLAWTVLLLPLLLLQTP |  |  |  |  | percentage of EdU-negative (hTERT-HMEC; [1]): 6.23 ± 0.24%; percentage of EdU-negative (hTERT-HMEC; [2]): 7.2445 ± 0.004%; percentage of EdU-negative (MCF7; [1]): 24.521 ± 0.0085%; percentage of EdU-negative (MCF7; [2]): 24.81 ± 0.061%
MEGAGPRGAGPARRRGAGGPPSPLLPSLLLLLLLWMLPDTVAPQELNPRGRNVCRAPGSQVPTCCAGWRQQGDECGIAVCEGNSTCSENEVCVRPGECRCRHGYFGANCDTKCPRQFWGPDCKELCSCHPHGQCEDVTGQCTCHARRWGARCEHACQCQHGTCHPRSGACRCEPGWWGAQCASACYCSATSRCDPQTGACLCHAGWWGRSCNNQCACNSSPCEQQSGRCQCRERTFGARCDRYCQCFRGRCHPVDGTCACEPGYRGKYCREPCPAGFYGLGCRRRCGQCKGQQPCTVAEGRCLTCEPGWNGTKCDQPCATGFYGEGCSHRCPPCRDGHACNHVTGKCTRCNAGWIGDRCETKCSNGTYGEDCAFVCADCGSGHCDFQSGRCLCSPGVHGPHCNVTCPPGLHGADCAQACSCHEDTCDPVTGACHLETNQRKGVMGAGALLVLLVCLLLSLLGCCCACRGKDPTRRPRPRRELSLGRKKAPHRLCGRFSRISMKLPRIPLRRQKLPKVVVAHHDLDNTLNCSFLEPPSGLEQPSPSWSSRASFSSFDTTDEGPVYCVPHEEAPAESRDPEVPTVPAEAPAPSPVPLTTPASAEEAIPLPASSDSERSASSVEGPGGALYARVARREARPARARGEIGGLSLSPSPERRKPPPPDPATKPKVSWIHGKHSAAAAGRAPSPPPPGSEAAPSPSKRKRTPSDKSAHTVEHGSPRTRDPTPRPPGLPEEATALAAPSPPRARARGRGPGLLEPTDAGGPPRSAPEAASMLAAELRGKTRSLGRAEVALGAQGPREKPAPPQKAKRSVPPASPARAPPATETPGPEKAATDLPAPETPRKKTPIQKPPRKKSREAAGELGRAGAPTL [Q96GP6] | 3.85 ± 0.62 | 18.5 ± 6.1 | 25.7 ± 1.2 | 36.9 ± 0.76 | 
MEGGDQSEEEPRERSQAGGMGTLWSQESTPEERLPVEGSRPWAVARRVLTAILILGLLLCFSVLLFYNFQNCGPRPCETSVCLDLRDHYLASGNTSVAPCTDFFSFACGRAKETNNSFQELATKNKNRLRRILEVQNSWHPGSGEEKAFQFYNSCMDTLAIEAAGTGPLRQVIEELGGWRISGKWTSLNFNRTLRLLMSQYGHFPFFRAYLGPHPASPHTPVIQIDQPEFDVPLKQDQEQKIYAQIFREYLTYLNQLGTLLGGDPSKVQEHSSLSISITSRLFQFLRPLEQRRAQGKLFQMVTIDQLKEMAPAIDWLSCLQATFTPMSLSPSQSLVVHDVEYLKNMSQLVEEMLLKQRDFLQSHMILGLVVTLSPALDSQFQEARRKLSQKLRELTEQPPMPARPRWMKCVEETGTFFEPTLAALFVREAFGPSTRSAAMKLFTAIRDALITRLRNLPWMNEETQNMAQDKVAQLQVEMGASEWALKPELARQEYNDIQLGSSFLQSVLSCVRSLRARIVQSFLQPHPQHRWKVSPWDVNAYYSVSDHVVVFPAGLLQPPFFHPGYPRAVNFGAAGSIMAHELLHIFYQLLLPGGCLACDNHALQEAHLCLKRHYAAFPLPSRTSFNDSLTFLENAADVGGLAIALQAYSKRLLRHHGETVLPSLDLSPQQIFFRSYAQVMCRKPSPQDSHDTHSPPHLRVHGPLSSTPAFARYFRCARGALLNPSSRCQLW | 4.88 ± 0.16 | 6.43 ± 0.18 | 26.89 ± 0.16 | 27.1 ± 3.5 | 
MEIPVPVQPSWLRRASAPLPGLSAPGRLFDQRFGEGLLEAELAALCPTTLAPYYLRAPSVALPVAQVPTDPGHFSVLLDVKHFSPEEIAVKVVGEHVEVHARHEERPDEHGFVAREFHRRYRLPPGVDPAAVTSALSPEGVLSIQAAPASAQAPPPAAAK | 4.93 ± 0.29 | 5.53 ± 0.95 | 27 ± 0.81 | 25.6 ± 1.1 | 
MEIVWEVLFLLQANFIVCISAQQNSPKIHEGWWAYKEVVQGSFVPVPSFWGLVNSAWNLCSVGKRQSPVNIETSHMIFDPFLTPLRINTGGRKVSGTMYNTGRHVSLRLDKEHLVNISGGPMTYSHRLEEIRLHFGSEDSQGSEHLLNGQAFSGEVQLIHYNHELYTNVTEAAKSPNGLVVVSIFIKVSDSSNPFLNRMLNRDTITRITYKNDAYLLQGLNIEELYPETSSFITYDGSMTIPPCYETASWIIMNKPVYITRMQMHSLRLLSQNQPSQIFLSMSDNFRPVQPLNNRCIRTNINFSLQGKDCPNNRAQKLQYRVNEWLLK [Q9NS85] | 5.049 ± 0.027 | 8.51 ± 1.1 | 25.5 ± 2.5 | 27.9 ± 0.69 | 
MEKILFYLFLIGIAVKAQICPKRCVCQILSPNLATLCAKKGLLFVPPNIDRRTVELRLADNFVTNIKRKDFANMTSLVDLTLSRNTISFITPHAFADLRNLRALHLNSNRLTKITNDMFSGLSNLHHLILNNNQLTLISSTAFDDVFALEELDLSYNNLETIPWDAVEKMVSLHTLSLDHNMIDNIPKGTFSHLHKMTRLDVTSNKLQKLPPDPLFQRAQVLATSGIISPSTFALSFGGNPLHCNCELLWLRRLSREDDLETCASPPLLTGRYFWSIPEEEFLCEPPLITRHTHEMRVLEGQRATLRCKARGDPEPAIHWISPEGKLISNATRSLVYDNGTLDILITTVKDTGAFTCIASNPAGEATQIVDLHIIKLPHLLNSTNHIHEPDPGSSDISTSTKSGSNTSSSNGDTKLSQDKIVVAEATSSTALLKFNFQRNIPGIRMFQIQYNGTYDDTLVYRMIPPTSKTFLVNNLAAGTMYDLCVLAIYDDGITSLTATRVVGCIQFTTEQDYVRCHFMQSQFLGGTMIIIIGGIIVASVLVFIIILMIRYKVCNNNGQHKVTKVSNVYSQTNGAQIQGCSVTLPQSVSKQAVGHEENAQCCKATSDNVIQSSETCSSQDSSTTTSALPPSWTSSTSVSQKQKRKTGTKPSTEPQNEAVTNVESQNTNRNNSTALQLASRPPDSVTEGPTSKRAHIKPNALLTNVDQIVQETQRLELI [G3V364] |  |  |  |  | percentage of EdU-negative (hTERT-HMEC; [4]): 4.44 ± 0.44%; percentage of EdU-negative (hTERT-HMEC; [5]): 6.29 ± 1.1%; percentage of EdU-negative (MCF7; [4]): 25.9 ± 2.7%; percentage of EdU-negative (MCF7; [5]): 27.1 ± 1.2%
MEKILILLLVALSVAYAAPGPRGIIINLENGELCMNSAQCKSNCCQHSSALGLARCTSMASENSECSVKTLYGIYYKCPCERGLTCEGDKTIVGSITNTNFGICHDAGRSKQ | 5.19 ± 0.81 | 6.85 ± 1.2 | 23.9 ± 2.4 | 28.37 ± 0.035 | 
MEKIPVSAFLLLVALSYTLARDTTVKPGAKKDTKDSRPKLPQTLSRGWGDQLIWTQTYEEALYKSKTSNKPLMIIHHLDECPHSQALKKVFAENKEIQKLAEQFVLLNLVYETTDKHLSPDGQYVPRIMFVDPSLTVRADITGRYSNRLYAYEPADTALLLDNMKKALKLLKTEL | 4.87 ± 0.93 | 7.88 ± 0.32 | 25.2 ± 1.5 | 25.7 ± 0.74 | 
MEKKWKYCAVYYIIQIHFVKGVWEKTVNTEENVYATLGSDVNLTCQTQTVGFFVQMQWSKVTNKIDLIAVYHPQYGFYCAYGRPCESLVTFTETPENGSKWTLHLRNMSCSVSGRYECMLVLYPEGIQTKIYNLLIQTHVTADEWNSNHTIEIEINQTLEIPCFQNSSSKISSEFTYAWSVENSSTDSWVLLSKGIKEDNGTQETLISQNHLISNSTLLKDRVKLGTDYRLHLSPVQIFDDGRKFSCHIRVGPNKILRSSTTVKVFAKPEIPVIVENNSTDVLVERRFTCLLKNVFPKANITWFIDGSFLHDEKEGIYITNEERKGKDGFLELKSVLTRVHSNKPAQSDNLTIWCMALSPVPGNKVWNISSEKITFLLGSEISSTDPPLSVTESTLDTQPSPASSVSPARYPATSSVTLVDVSALRPNTTPQPSNSSMTTRGFNYPWTSSGTDTKKSVSRIPSETYSSSPSGAGSTLHDNVFTSTARAFSEVPTTANGSTKTNHVHITGIVVNKPKDGMSWPVIVAALLFCCMILFGLGVRKWCQYQKEIMERPPPFKPPPPPIKYTCIQEPNESDLPYHEMETL |  |  |  |  | percentage of EdU-negative (hTERT-HMEC; [6]): 4.86 ± 1%; percentage of EdU-negative (hTERT-HMEC; [7]): 12.1 ± 1.3%; percentage of EdU-negative (MCF7; [6]): 25.5 ± 0.86%; percentage of EdU-negative (MCF7; [7]): 29.5 ± 0.78%
MEKLLCFLVLTSLSHAFGQTDMSRKAFVFPKESDTSYVSLKAPLTKPLKAFTVCLHFYTELSSTRGYSIFSYATKRQDNEILIFWSKDIGYSFTVGGSEILFEVPEVTVAPVHICTSWESASGIVEFWVDGKPRVRKSLKKGYTVGAEASIILGQEQDSFGGNFEGSQSLVGDIGNVNMWDFVLSPDEINTIYLGGPFSPNVLNWRALKYEVQGEVFTKPQLWP |  |  |  |  | percentage of EdU-negative (hTERT-HMEC; [8]): 4.41 ± 0.15%; percentage of EdU-negative (hTERT-HMEC; [9]): 5.8 ± 1.1%; percentage of EdU-negative (MCF7; [8]): 24.1 ± 2.6%; percentage of EdU-negative (MCF7; [9]): 25.3 ± 0.79%
